Data taken from publication PMC3299563, “Salt Bridges Regulate Both Dimer Formation and Monomeric Flexibility in HdeB and May Have a Role in Periplasmic Chaperone Function” (Journal of Molecular Biology, 2011).

How the values were obtained:
[1] = target: HdeB E41Q, C-terminal His6 E41Q (UniProt P0AET2); assay: Intrinsic tryptophan fluorescence (emission maximum, intensity, acrylamide Stern-Volmer quenching constant, steady-state anisotropy) as a function of pH; conditions: pH 1.5-7.5; 20 °C; Not stated as a number. It varies with the McIlvaine mixing ratio; 10 mM KCl below pH 2.6.; McIlvaine buffer (mixtures of 0.1 M citric acid and 0.2 M Na2HPO4) for pH 2.6-7; 10 mM KCl adjusted with HCl for more ac
Asp76 = Asp76 (UniProt position 76, TLNETDLTQIP); assay: fluorescence; conditions: 20 °C; not stated (McIlvaine buffer: mixtures of 0.1 M citric acid and 0.2 M Na2HPO4; 10 mM KCl adjusted with HCl for more acid solutions); McIlvaine buffer (citric acid / Na2HPO4) for pH 2.6-7; 10 mM KCl/HCl for more acid solutions; 50 uM protein, no ligand; dimer at neutral pH, monomer below about pH 3
[2] = target: HdeB (acid stress chaperone HdeB), wild type, C-terminal His6 (UniProt P0AET2); assay: Intrinsic tryptophan fluorescence (emission maximum, intensity, acrylamide Stern-Volmer quenching constant, steady-state anisotropy) as a function of pH; conditions: pH 1.5-7.5; 20 °C; Not stated as a number. It varies with the McIlvaine mixing ratio; 10 mM KCl below pH 2.6.; McIlvaine buffer (mixtures of 0.1 M citric acid and 0.2 M Na2HPO4) for pH 2.6-7; 10 mM KCl adjusted with HCl for more ac
[3] = target: the molecule itself; assay: SEC; gel filtration at neutral pH (pH 7)
[4] = target: the molecule itself; assay: crystal structure; methylated HdeB-His6 at 15 mg/ml; 50% (v/v) polyethylene glycol 400, 0.1 M acetate pH 4.5, 0.2 M Li2SO4; 1.5 Å; dimer found with PISA
[5] = target: the molecule itself; assay: other fluorescence titration; emission maximum against HdeB concentration (1-100 μM, as monomers) at pH 7.5; dimer to monomers
[6] = target: the molecule itself; assay: other fluorescence titration; intrinsic tryptophan fluorescence (emission maximum, acrylamide quenching, anisotropy) against pH 1.5 to 7.5; 50 μM HdeB, McIlvaine buffer, 20 °C; apparent pKa; neutral side of the transition

**Q.** For HdeB E41Q, C-terminal His6 E41Q, which “shift of the apparent pKa of dimer dissociation relative to wild type (50 uM)” value [1] is on record?
**A.** The value was “apparent pKa ∼ 0.5 pH units higher than that of wild type”.

**Q.** With “Acid stress chaperone HdeB H59N (His6-tagged) (Escherichia coli; H59N)” as the molecule, how does the pKa (Asp76) read?
**A.** Its pKa is 3.5.

**Q.** Which pKa (Asp76) does the source give for “Acid stress chaperone HdeB (HdeB-His6 WT) (Escherichia coli)” here?
**A.** The pKa was 2.9.

**Q.** “HdeB (acid stress chaperone HdeB), wild type, C-terminal His6” was tested. Which “effective pKa of dimer dissociation (midpoint of the dimer-to-monomer transition at 50 uM)” value [2] did it give?
**A.** The value was “effective pKa ≈ 3 for dissociation of the dimer”.

B1: HdeB D76N (natural protein, E. coli, UniProt P0AET2 30-108, looked up)
chain: ANESAKDMTCQEFIDLNPKAMTPVAWWMLHEETVYKGGDTVTLNETNLTQIPKVIEYCKKNPQKNLYTFKNQASNDLPN
notes: HdeB, E. coli, with D76N; residue numbers count on the precursor; Probably made from the HdeB-His6 construct; also called D67N (as printed in two places)
**Q.** Does B1 bind [3]?
**A.** Result: binds

B2: HdeB (methylated) (natural protein, E. coli, UniProt P0AET2 30-108, looked up)
chain: ANESAKDMTCQEFIDLNPKAMTPVAWWMLHEETVYKGGDTVTLNETDLTQIPKVIEYCKKNPQKNLYTFKNQASNDLPN
modifications: reductively methylated lysines: doubly methylated K48, K88 and K93; some modification of K35, K65, K89 and K99; K82 apparently unmodified
notes: HdeB, E. coli; A30 to A102 ordered, six C-terminal residues and the His-tag disordered; residue numbers count on the precursor; A selenomethionine variant, treated identically, was used for phasing only; also called methylated HdeB-His6; HdeB after reductive methylation; source: E. coli MG1655ΔhdeAB, purified (Ni resin, gel filtration), then reductive methylation and gel filtration; not shown: …
**Q.** With B2 as the molecule, how does the “stoichiometry N” value [4] read?
**A.** The value was 2.

B3: HdeB-His6 WT (natural protein, E. coli, UniProt P0AET2 30-108, looked up)
chain: ANESAKDMTCQEFIDLNPKAMTPVAWWMLHEETVYKGGDTVTLNETDLTQIPKVIEYCKKNPQKNLYTFKNQASNDLPN
notes: HdeB, E. coli periplasmic acid-stress chaperone; begins at A30; A30 to A102 ordered in the crystal plus six disordered C-terminal residues; residue numbers count on the precursor; Cloned with hdeA (hdeAB genes) in pTrc99A; primers are in the Supplementary Data; also called HdeB WT; wild type; source: E. coli MG1655ΔhdeAB, plasmid pTrcHdeABHis6, 1 mM IPTG, purified (Ni resin, gel filtration); not …
**Q.** Which “stoichiometry N” value [3] does the source give for B3 here?
**A.** The value was 2.

**Q.** And the Kd [5]?
**A.** The Kd was < 1 µM.

B4: HdeB E41Q (natural protein, E. coli, UniProt P0AET2 30-108, looked up)
chain: ANESAKDMTCQQFIDLNPKAMTPVAWWMLHEETVYKGGDTVTLNETDLTQIPKVIEYCKKNPQKNLYTFKNQASNDLPN
notes: HdeB, E. coli, with E41Q; residue numbers count on the precursor; The methods speak of 'purified HdeB-His6 WT and E41Q samples'; probably the same construct and host as the wild type; also called E41Q mutant; source: purified mutant protein
**Q.** Which Kd [5] does the source give for B4 here?
**A.** Its Kd is 34 µM.

B5: HdeB H59N (natural protein, E. coli, UniProt P0AET2 30-108, looked up)
chain: ANESAKDMTCQEFIDLNPKAMTPVAWWMLNEETVYKGGDTVTLNETDLTQIPKVIEYCKKNPQKNLYTFKNQASNDLPN
notes: HdeB, E. coli, with H59N; residue numbers count on the precursor; Probably made from the HdeB-His6 construct; also called H59N mutant
**Q.** Does B5 bind [6]?
**A.** Result: binds
